Series [1] relates to HeLa Kyoto. The series is described as follows: solubility in G1/S (NP-40 vs SDS abundance) (log2 ratio); higher = more soluble. The note with it: cell cycle stage: G1/S.
In series [2] the test system is HeLa Kyoto. The series is described as follows: thermal stability score vs G1/S (z-score of summed log2 fold changes over temperatures); higher = more thermally stable than in G1/S.
Series [3] concerns HeLa Kyoto. The series is described as follows: solubility change mitosis vs G1/S (difference of NP-40 vs SDS log2 ratios) (log2 ratio difference); higher = more soluble in mitosis.
[4] abbreviates: cell cycle stage: early G1 (4.5 h after nocodazole release).

The source of these data is the supplement of paper PMC5998384.
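Throughout, for solubility change mitosis vs G1/S (difference of NP-40 vs SDS log2 ratios): synchronized HeLa Kyoto cells (double thymidine block for G1/S, nocodazole release for mitosis), protein amounts in NP-40 versus SDS lysates quantified by mass spectrometry, three biological replicates.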
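Throughout, for solubility in G1/S (NP-40 vs SDS abundance): HeLa Kyoto cells arrested at G1/S by double thymidine block, proteins quantified by TMT10plex mass spectrometry in mild NP-40 versus SDS extracts, three biological replicates.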
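Throughout, for thermal stability score vs G1/S (z-score of summed log2 fold changes over temperatures): synchronized HeLa Kyoto cells, proteins quantified by TMT10plex mass spectrometry, three biological replicates, mitosis taken 0.5 h after nocodazole release, G1/S directly after double thymidine block.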

Take “MDWQPDEQGLQQVLQLLKDSQSPNTATQRIVQDKLKQLNQFPDFNNYLIFVLTRLKSEDEPTRSLSGLILKNNVKAHYQSFPPPVADFIKQECLNNIGDASSLIRATIGILITTIASKGELQMWPELLPQLCNLLNSEDYNTCEGAFGALQKICEDSSELLDSDALNRPLNIMIPKFLQFFKHCSPKIRSHAIACVNQFIMDRAQALMDNIDTFIEHLFALAVDDDPEVRKNVCRALVMLLEVRIDRLIPHMHSIIQYMLQRTQDHDENVALEACEFWLTLAEQPICKEVLASHLVQLIPILVNGMKYSEIDIILLKGDVEEDEAVPDSEQDIKPRFHKSRTVTLPHEAERPDGSEDAEDDDDDDALSDWNLRKCSAAALDVLANVFREELLPHLLPLLKGLLFHPEWVVKESGILVLGAIAEGCMQGMVPYLPELIPHLIQCLSDKKALVRSIACWTLSRYAHWVVSQPPDMHLKPLMTELLKRILDGNKRVQEAACSAFATLEEEACTELVPYLSYILDTLVFAFGKYQHKNLLILYDAIGTLADSVGHHLNQPEYIQKLMPPLIQKWNELKDEDKDLFPLLECLSSVATALQSGFLPYCEPVYQRCVTLVQKTLAQAMMYTQHPEQYEAPDKDFMIVALDLLSGLAEGLGGHVEQLVARSNIMTLLFQCMQDSMPEVRQSSFALLGDLTKACFIHVKPCIAEFMPILGTNLNPEFISVCNNATWAIGEICMQMGAEMQPYVQMVLNNLVEIINRPNTPKTLLENTGRLTSPSAIPAITIGRLGYVCPQEVAPMLQQFIRPWCTSLRNIRDNEEKDSAFRGICMMIGVNPGGVVQDFIFFCDAVASWVSPKDDLRDMFYKILHGFKDQVGEDNWQQFSEQFPPLLKERLAAFYGV [TNPO2]”: in the series on HeLa Kyoto [1], the “solubility in G1/S (log2)” value worked out at 0.0053. Also, the thermal stability score in the series with HeLa Kyoto [2] (setting [4]) is -0.161; with HeLa Kyoto [2] (cell cycle stage: mitosis), 0.756. In addition, the “solubility change mitosis (log2)” value with HeLa Kyoto [3] is -0.263.
On the same counts, the results for “MTNPWEEKVCKMAQTSLLQGKQFYCREWVFHKLQHCLQEKSNCCNSAVNAPSLVMNSGNNASGVSGKGAAWGVLLVGGPGSGKTALCTELLWPSSPASLQRGLHRQALAFHFCKAQDSDTLCVGGFIRGLVAQICRSGLLQGYEDKLRDPAVQSLLQPGECERNPAEAFKRCVLLPLLGMKPPQQSLYLLVDSVDEGCNITEGEQTSTSLSGTVAALLAGHHEFFPPWLLLLCSARKQSKAVTKMFTGFRKISLDDLRKAYIVKDVQQYILHRLDQEEALRQHLTKETAEMLNQLHIKSSGCFLYLERVLDGVVENFIMLREIRDIPGTLNGLYLWLCQRLFVRKQFAKVQPILNVILAACRPLTITELYHAVWTKNMSLTLEDFQRKLDILSKLLVDGLGNTKILFHYSFAEWLLDVKHCTQKYLCNAAEGHRMLAMSYTCQAKNLTPLEAQEFALHLINSNLQLETAELALWMIWNGTPVRDSLSTLIPKEQEVLQLLVKAGAHVNSEDDRTSCIVRQALEREDSIRTLLDNGASVNQCDSNGRTLLANAAYSGSLDVVNLLVSRGADLEIEDAHGHTPLTLAARQGHTKVVNCLIGCGANINHTDQDGWTALRSAAWGGHTEVVSALLYAGVKVDCADADSRTALRAAAWGGHEDIVLNLLQHGAEVNKADNEGRTALIAAAYMGHREIVEHLLDHGAEVNHEDVDGRTALSVAALCVPASKGHASVVSLLIDRGAEVDHCDKDGMTPLLVAAYEGHVDVVDLLLEGGADVDHTDNNGRTPLLAAASMGHASVVNTLLFWGAAVDSIDSEGRTVLSIASAQGNVEVVRTLLDRGLDENHRDDAGWTPLHMAAFEGHRLICEALIEQGARTNEIDNDGRIPFILASQEGHYDCVQILLENKSNIDQRGYDGRNALRVAALEGHRDIVELLFSHGADVNCKDADGRPTLYILALENQLTMAEYFLENGANVEASDAEGRTALHVSCWQGHMEMVQVLIAYHADVNAADNEKRSALQSAAWQGHVKVVQLLIEHGAVVDHTCNQGATALCIAAQEGHIDVVQVLLEHGADPNHADQFGRTAMRVAAKNGHSQIIKLLEKYGASSLNGCSPSPVHTMEQKPLQSLSSKVQSLTIKSNSSGSTGGGDMQPSLRGLPNGPTHAFSSPSESPDSTVDRQKSSLSNNSLKSSKNSSLRTTSSTATAQTVPIDSFHNLSFTEQIQQHSLPRSRSRQSIVSPSSTTQSLGQSHNSPSSEFEWSQVKPSLKSTKASKGGKSENSAKSGSAGKKAKQSNSSQPKVLEYEMTQFDRRGPIAKSGTAAPPKQMPAESQCKIMIPSAQQEIGRSQQQFLIHQQSGEQKKRNGIMTNPNYHLQSNQVFLGRVSVPRTMQDRGHQEVLEGYPSSETELSLKQALKLQIEGSDPSFNYKKETPL [ANKRD50]” are 0.02, -0.667, -0.543 and -0.256.
As to “MAAPAPGAGAASGGAGCSGGGAGAGAGSGSGAAGAGGRLPSRVLELVFSYLELSELRSCALVCKHWYRCLHGDENSEVWRSLCARSLAEEALRTDILCNLPSYKAKIRAFQHAFSTNDCSRNVYIKKNGFTLHRNPIAQSTDGARTKIGFSEGRHAWEVWWEGPLGTVAVIGIATKRAPMQCQGYVALLGSDDQSWGWNLVDNNLLHNGEVNGSFPQCNNAPKYQIGERIRVILDMEDKTLAFERGYEFLGVAFRGLPKVCLYPAVSAVYGNTEVTLVYLGKPLDG [FBXO45]”, in the series with HeLa Kyoto [1], the “solubility in G1/S (log2)” value is 0.344. The thermal stability score was -0.0815 in the series on HeLa Kyoto [2] (setting [4]) and -0.292 with HeLa Kyoto [2] (cell cycle stage: mitosis). Moreover, the “solubility change mitosis (log2)” value in the series with HeLa Kyoto [3] was -0.17.
On the same counts, the results for “MDEETRHSLECIQANQIFPRKQLIREDENLQVPFLELHGESTEFVGRAEDAIIALSNYRLHIKFKESLVNVPLQLIESVECRDIFQLHLTCKDCKVIRCQFSTFEQCQEWLKRLNNAIRPPAKIEDLFSFAYHAWCMEVYASEKEQHGDLCRPGEHVTSRFKNEVERMGFDMNNAWRISNINEKYKLCGSYPQELIVPAWITDKELESVSSFRSWKRIPAVIYRHQSNGAVIARCGQPEVSWWGWRNADDEHLVQSVAKACASDSRSSGSKLSTRNTSRDFPNGGDLSDVEFDSSLSNASGAESLAIQPQKLLILDARSYAAAVANRAKGGGCECPEYYPNCEVVFMGMANIHSIRRSFQSLRLLCTQMPDPGNWLSALESTKWLHHLSVLLKSALLVVHAVDQDQRPVLVHCSDGWDRTPQIVALAKLLLDPYYRTIEGFQVLVEMEWLDFGHKFADRCGHGENSDDLNERCPVFLQWLDCVHQLQRQFPCSFEFNEAFLVKLVQHTYSCLFGTFLCNNAKERGEKHTQERTCSVWSLLRAGNKAFKNLLYSSQSEAVLYPVCHVRNLMLWSAVYLPCPSPTTPVDDSCAPYPAPGTSPDDPPLSRLPKTRSYDNLTTACDNTVPLASRRCSDPSLNEKWQEHRRSLELSSLAGPGEDPLSADSLGKPTRVPGGAELSVAAGVAEGQMENILQEATKEESGVEEPAHRAGIEIQEGKEDPLLEKESRRKTPEASAIGLHQDPELGDAALRSHLDMSWPLFSQGISEQQSGLSVLLSSLQVPPRGEDSLEVPVEQFRIEEIAEGREEAVLPIPVDAKVGYGTSQSCSLLPSQVPFETRGPNVDSSTDMLVEDKVKSVSGPQGHHRSCLVNSGKDRLPQTMEPSPSETSLVERPQVGSVVHRTSLGSTLSLTRSPCALPLAECKEGLVCNGAPETENRASEQPPGLSTLQMYPTPNGHCANGEAGRSKDSLSRQLSAMSCSSAHLHSRNLHHKWLHSHSGRPSATSSPDQPSRSHLDDDGMSVYTDTIQQRLRQIESGHQQEVETLKKQVQELKSRLESQYLTSSLHFNGDFGDEVTSIPDSESNLDQNCLSRCSTEIFSEASWEQVDKQDTEMTRWLPDHLAAHCYACDSAFWLASRKHHCRNCGNVFCSSCCNQKVPVPSQQLFEPSRVCKSCYSSLHPTSSSIDLELDKPIAATSN [MTMR3]” are -0.000164, -0.332, -0.143 and -0.15.
On to “MLKKQSAGLVLWGAILFVAWNALLLLFFWTRPAPGRPPSVSALDGDPASLTREVIRLAQDAEVELERQRGLLQQIGDALSSQRGRVPTAAPPAQPRVPVTPAPAVIPILVIACDRSTVRRCLDKLLHYRPSAELFPIIVSQDCGHEETAQAIASYGSAVTHIRQPDLSSIAVPPDHRKFQGYYKIARHYRWALGQVFRQFRFPAAVVVEDDLEVAPDFFEYFRATYPLLKADPSLWCVSAWNDNGKEQMVDASRPELLYRTDFFPGLGWLLLAELWAELEPKWPKAFWDDWMRRPEQRQGRACIRPEISRTMTFGRKGVSHGQFFDQHLKFIKLNQQFVHFTQLDLSYLQREAYDRDFLARVYGAPQLQVEKVRTNDRKELGEVRVQYTGRDSFKAFAKALGVMDDLKSGVPRAGYRGIVTFQFRGRRVHLAPPLTWEGYDPSWN [MGAT1]”, for which the “solubility in G1/S (log2)” value in the series with HeLa Kyoto [1] was -0.0579. In addition, the figures for the thermal stability score in the series on HeLa Kyoto [2] (setting [4]) and in the series on HeLa Kyoto [2] (cell cycle stage: mitosis) were 0.289 and 0.0296, respectively. Further, the “solubility change mitosis (log2)” value in the series on HeLa Kyoto [3] stood at 0.0597.
